# Assay results taken from patent publication US12281340B2, “Method of producing N-acyl-amino group-containing compound” (AJINOMOTO CO., INC., priority 2018, dated 2025).
# B1: CfHP: hypothetical protein from Cystobacter fuscus (GH3 protein), His-tagged (protein, listed as Cystobacter fuscus)
# chain: MQAAGRRDKQRFIEQTRHVARVNVDTLRAILQHNRDTDFGRRHGFASLRTVEDFQRALPVSTYEPFRPYMERIARGEQNVLTADRVEYLGITSGTTGQRKLLPVSRPHLENMRRTMMIGRAVVTEKVPAARRPSRGMILMNAVLRERSEGGLLTGALTAISTHSMGRAASFAFTSPPEAFRLRKHADALYLHLLFGLRERELGTLMAPFASGLLDMVHLLERRGADLVDDIARGVLRPELDLEPEQRRLLQSRLLPDPERAREVSQALEQGPHGLLRRLWPRLAYVSSITGASFSLYTRQLTPYLEGVPLSAASYVSTEGILGVPLELEQAVYCLMVGMAFFEFIPERELDAESPTTLLPEQLVEGEAYEVVLTTQAGLYRYRLGDVVRIVGRYHEAPLMEFLYRRGALLNLMGEKTSEHAARLALEQALATEGLLPADYSVVEETETLPGRYALFVELQEGARPQGAPEQLSRALEEALCRTNPFYEVIRRSERLGAAQLHRVEPGTFQALRDVLVQRGASPTQVKVPRVVRDAELQGLLRQRRVTG
# modifications: His-tag
# notes: hypothetical protein from Cystobacter fuscus (GH3 protein), His-tagged
# Tests used:
# Format in all cases: biochemical
# [1] = Synthesis of N-caprinoyl-amino acid derivative, N-caprinoyl-D-amino acid and N-caprinoyl-peptide using purified acylamino acid synthetase, UPLC-MS detection; set-up: key: +: Detected; −: Not detected; details: +ATP
# In short: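 Purified enzyme (50 μg/mL) was incubated with 5 mM sodium caprate, 5 mM amino acid derivative, D-amino acid or peptide, 10 mM ATP, 10 mM MgCl2 and 1 mM DTT in 50 mM Tris-HCl, pH 8.0, for 24 h at 25 °C. After acidic methanol stop, UPLC-MS looked for the mass of the N-caprinoyl product.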
# [2] = Quantification of produced N-acylamino acid (UV 210 nm) using purified acylamino acid synthetase; details: 5 mM sodium fatty acid, 200 μg/mL enzyme, 25° C., 24 hours
# Method: 0.1 mL of a reaction solution containing 50 mM Tris-HCl, 5 mM amino acid, 5 mM sodium fatty acid, 10 mM ATP, 10 mM MgCl2, 1 mM DTT, 200 μg/mL of the purified enzyme, pH 8.0 was incubated at 25° C. for 24 hours. As amino acids, L-Asp was used in AtGH3-6, OsGH3-8, AtGH3-5, AtGH3-12, and Gly or L-Ala was used in CfHP. After completion of the reaction, 0.4 mL of the reaction stop solution (1% (v/v) phosphoric acid, 75% (v/v) methanol) was added, and the mixture was filtrated through the filter followed by being subjected to the UPLC-MS analysis to quantify the produced N-acylamino acid by detection at UV 210 nm. The condition for the UPLC-MS analysis is as descried in Example 2. As a result of the analysis, 3.9 mM of Nα-capryloyl-L-aspartic acid, 4.5 mM of Nα-caprinoyl-L-aspartic acid and 2.2 mM of Nα-lauroyl-L-aspartic acid were detected when AtGH3-6 was used; 4.3 mM of Nα-capryloyl-L-aspartic acid, 4.6 mM of Nα-caprinoyl-L-aspartic acid and 3.5 mM of Nα-lauroyl-L-aspartic acid were detected when OsGH3-8 was used; 4.1 mM of Nα-capryloyl-L-aspartic acid, 4.6 mM of Nα-caprinoyl-L-aspartic acid and 2.5 mM of Nα-lauroyl-L-aspartic acid were detected when AtGH3-5 was used; 1.6 mM of Nα-capryloyl-L-aspartic acid, 0.6 mM of Nα-caprinoyl-L-aspartic acid and 0.2 mM of Nα-lauroyl-L-aspartic acid were detected when AtGH3-12 was used; 4.5 mM of Nα-capryloylglycine, 4.6 mM of Nα-caprinoylglycine, 0.1 mM of Nα-lauroylglycine, 3.1 mM of Nα-capryloyl-L-alanine, 3.6 mM of Nα-caprinoyl-L-alanine and 0.4 mM of Nα-lauroyl-L-alanine were detected when CfHP was used.
# [3] = Synthesis of N-acylamino acids from various fatty acids using purified acylamino acid synthetase, UPLC-MS detection; set-up: key: +: Detected; −: Not detected
# In short: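 Purified enzyme (200 μg/mL) with 5 mM amino acid, 5 mM sodium fatty acid (3 mM palmitate or stearate, plus 10% methanol), 10 mM ATP, 10 mM MgCl2, 1 mM DTT in 50 mM Tris-HCl pH 8.0, shaken 24 h at 25 °C. Amino acid varied by enzyme; product mass detected by UPLC-MS (ESI-negative).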
molecule,measurement,setting,value
B1,signal of molecular weight corresponding to N-caprinoyl compound,[1]; substrates Carnosine and sodium caprate,+
same,signal of molecular weight corresponding to N-caprinoyl compound,[1]; substrates D-Ala and sodium caprate,+
same,signal of molecular weight corresponding to N-caprinoyl compound,[1]; substrates D-Asp and sodium caprate,+
same,signal of molecular weight corresponding to N-caprinoyl compound,[1]; substrates D-Cys and sodium caprate,+
same,signal of molecular weight corresponding to N-caprinoyl compound,[1]; substrates D-Glu and sodium caprate,+
same,signal of molecular weight corresponding to N-caprinoyl compound,[1]; substrates D-Ile and sodium caprate,+
same,signal of molecular weight corresponding to N-caprinoyl compound,[1]; substrates D-Lys and sodium caprate,+
same,signal of molecular weight corresponding to N-caprinoyl compound,[1]; substrates L-Asp-L-Phe and sodium caprate,+
same,signal of molecular weight corresponding to N-caprinoyl compound,[1]; substrates L-Gly-L-Gly and sodium caprate,+
same,signal of molecular weight corresponding to N-caprinoyl compound,[1]; substrates Sarcosine and sodium caprate,+
same,signal of molecular weight corresponding to N-caprinoyl compound,[1]; substrates Taurine and sodium caprate,+
same,Nα-caprinoylglycine detected,[2]; 5 mM Gly,4.6 mM
same,Nα-capryloylglycine detected,[2]; 5 mM Gly,4.5 mM
same,Nα-lauroylglycine detected,[2]; 5 mM Gly,0.1 mM
same,Nα-caprinoyl-L-alanine detected,[2]; 5 mM L-Ala,3.6 mM
same,Nα-capryloyl-L-alanine detected,[2]; 5 mM L-Ala,3.1 mM
same,Nα-lauroyl-L-alanine detected,[2]; 5 mM L-Ala,0.4 mM
same,signal of molecular weight corresponding to N-acylamino acid,[3]; substrates Gly and Capric acid,+
same,signal of molecular weight corresponding to N-acylamino acid,[3]; substrates Gly and Caproic acid,+
same,signal of molecular weight corresponding to N-acylamino acid,[3]; substrates Gly and Caprylic acid,+
same,signal of molecular weight corresponding to N-acylamino acid,[3]; substrates Gly and Lauric acid,+
same,signal of molecular weight corresponding to N-acylamino acid,[3]; substrates Gly and Linoleic acid,−
same,signal of molecular weight corresponding to N-acylamino acid,[3]; substrates Gly and Palmitic acid,+
same,signal of molecular weight corresponding to N-acylamino acid,[3]; substrates Gly and myristic acid,+
